Laboratory results from patent publication US20130296247A1.

Key:
Test in all cases: cell-based or functional assay
[1] = target: Nav1.2 sodium channel (rBIIa) (UniProt P04775)
[2] = target: human Nav1.7 sodium channel alpha subunit (human) (UniProt Q15858)
[3] = target: Nav1.2 sodium channel (rBIIa), P04775

Chain of human Nav1.7 sodium channel alpha subunit (human) (Q15858 whole entry): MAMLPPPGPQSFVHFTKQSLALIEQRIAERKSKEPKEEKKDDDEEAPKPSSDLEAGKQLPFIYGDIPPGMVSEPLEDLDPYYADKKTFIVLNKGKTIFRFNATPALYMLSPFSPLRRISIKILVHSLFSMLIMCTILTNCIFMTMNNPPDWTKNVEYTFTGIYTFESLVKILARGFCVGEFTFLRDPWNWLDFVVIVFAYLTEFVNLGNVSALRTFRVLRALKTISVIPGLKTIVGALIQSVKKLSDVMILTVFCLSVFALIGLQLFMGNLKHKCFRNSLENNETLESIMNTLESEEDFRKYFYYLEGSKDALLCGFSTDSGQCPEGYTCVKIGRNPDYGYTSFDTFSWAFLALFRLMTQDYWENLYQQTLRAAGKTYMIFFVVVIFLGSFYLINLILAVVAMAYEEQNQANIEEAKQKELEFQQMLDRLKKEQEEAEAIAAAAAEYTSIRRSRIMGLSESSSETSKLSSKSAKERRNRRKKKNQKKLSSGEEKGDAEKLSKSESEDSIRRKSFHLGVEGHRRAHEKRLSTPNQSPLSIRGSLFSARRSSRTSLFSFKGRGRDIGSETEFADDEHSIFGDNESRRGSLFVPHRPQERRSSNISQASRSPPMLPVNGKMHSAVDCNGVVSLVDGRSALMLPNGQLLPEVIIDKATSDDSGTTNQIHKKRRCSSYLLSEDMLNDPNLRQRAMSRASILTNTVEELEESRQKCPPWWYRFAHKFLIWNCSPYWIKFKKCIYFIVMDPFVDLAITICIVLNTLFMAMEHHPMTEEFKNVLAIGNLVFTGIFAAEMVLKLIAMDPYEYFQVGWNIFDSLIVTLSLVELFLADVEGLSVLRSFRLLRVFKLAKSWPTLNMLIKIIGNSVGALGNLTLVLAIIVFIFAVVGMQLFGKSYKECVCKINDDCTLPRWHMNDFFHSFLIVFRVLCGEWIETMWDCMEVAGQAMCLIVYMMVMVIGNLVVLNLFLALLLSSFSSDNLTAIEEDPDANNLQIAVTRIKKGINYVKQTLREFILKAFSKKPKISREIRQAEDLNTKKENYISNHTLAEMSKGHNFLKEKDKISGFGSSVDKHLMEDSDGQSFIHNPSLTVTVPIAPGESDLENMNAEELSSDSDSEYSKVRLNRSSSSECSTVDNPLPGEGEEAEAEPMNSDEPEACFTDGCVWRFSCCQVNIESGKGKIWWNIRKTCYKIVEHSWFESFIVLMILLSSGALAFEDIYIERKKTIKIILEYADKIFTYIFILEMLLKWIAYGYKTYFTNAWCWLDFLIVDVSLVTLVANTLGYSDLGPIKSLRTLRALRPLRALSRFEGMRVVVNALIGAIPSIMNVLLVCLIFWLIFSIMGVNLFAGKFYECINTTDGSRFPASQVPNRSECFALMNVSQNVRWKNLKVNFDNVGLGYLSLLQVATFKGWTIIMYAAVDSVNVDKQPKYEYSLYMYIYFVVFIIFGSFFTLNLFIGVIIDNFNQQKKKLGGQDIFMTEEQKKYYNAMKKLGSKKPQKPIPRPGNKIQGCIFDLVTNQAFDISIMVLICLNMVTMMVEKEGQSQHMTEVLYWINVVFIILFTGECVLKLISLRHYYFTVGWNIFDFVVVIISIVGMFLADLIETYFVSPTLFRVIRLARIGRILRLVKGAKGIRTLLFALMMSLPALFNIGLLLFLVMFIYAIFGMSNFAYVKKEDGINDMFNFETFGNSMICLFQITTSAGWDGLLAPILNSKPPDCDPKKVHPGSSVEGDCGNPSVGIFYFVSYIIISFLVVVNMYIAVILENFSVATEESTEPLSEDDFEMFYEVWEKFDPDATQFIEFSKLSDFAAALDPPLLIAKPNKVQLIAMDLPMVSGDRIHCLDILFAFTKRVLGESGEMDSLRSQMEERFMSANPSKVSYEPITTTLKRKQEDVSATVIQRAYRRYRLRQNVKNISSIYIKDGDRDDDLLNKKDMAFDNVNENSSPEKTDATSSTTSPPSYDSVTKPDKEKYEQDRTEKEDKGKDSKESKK

Row | Molecule | IC50 Nav1.2 [1] | IC50 Nav1.7 [2] | IC50 Nav1.2 [3]
1 | VsTx II (peptide) | 42400 nM | 9260 nM | 
2 | GsAF II (peptide) | 410 nM | 70 nM | 
3 | JzTx XII (peptide) | 73900 nM |  | 
4 | GsAF I (peptide) | 255 nM | 249 nM | 
5 | Phrixotoxin I (peptide) | 5000 nM |  | 
6 | JzTx V (peptide) | 157 nM | 14 nM | 
7 | GrTx I (peptide) | 2690 nM | 1010 nM | 
8 | GsMTx II/PaTX II (peptide) | 2700 nM | 260 nM | 
9 | YCQKWMWTCDSERKCCEGMVCRLWCKKKLW (modifications not checked) [peptide of SEQ ID NO: 2] |  |  | 8 nM
